The numbers were not newly measured in PMC10886550, which cites them from elsewhere.

As usually defined, the Kd is the concentration at which binding is half-saturated.

Data set [1] addresses DNA gyrase (Escherichia coli) (UniProt P0AES4).
For data set [2], the target named is GyrB (Escherichia coli) (UniProt P0AES6).

Chain of UniProt P0AES4 (P0AES4 2-875): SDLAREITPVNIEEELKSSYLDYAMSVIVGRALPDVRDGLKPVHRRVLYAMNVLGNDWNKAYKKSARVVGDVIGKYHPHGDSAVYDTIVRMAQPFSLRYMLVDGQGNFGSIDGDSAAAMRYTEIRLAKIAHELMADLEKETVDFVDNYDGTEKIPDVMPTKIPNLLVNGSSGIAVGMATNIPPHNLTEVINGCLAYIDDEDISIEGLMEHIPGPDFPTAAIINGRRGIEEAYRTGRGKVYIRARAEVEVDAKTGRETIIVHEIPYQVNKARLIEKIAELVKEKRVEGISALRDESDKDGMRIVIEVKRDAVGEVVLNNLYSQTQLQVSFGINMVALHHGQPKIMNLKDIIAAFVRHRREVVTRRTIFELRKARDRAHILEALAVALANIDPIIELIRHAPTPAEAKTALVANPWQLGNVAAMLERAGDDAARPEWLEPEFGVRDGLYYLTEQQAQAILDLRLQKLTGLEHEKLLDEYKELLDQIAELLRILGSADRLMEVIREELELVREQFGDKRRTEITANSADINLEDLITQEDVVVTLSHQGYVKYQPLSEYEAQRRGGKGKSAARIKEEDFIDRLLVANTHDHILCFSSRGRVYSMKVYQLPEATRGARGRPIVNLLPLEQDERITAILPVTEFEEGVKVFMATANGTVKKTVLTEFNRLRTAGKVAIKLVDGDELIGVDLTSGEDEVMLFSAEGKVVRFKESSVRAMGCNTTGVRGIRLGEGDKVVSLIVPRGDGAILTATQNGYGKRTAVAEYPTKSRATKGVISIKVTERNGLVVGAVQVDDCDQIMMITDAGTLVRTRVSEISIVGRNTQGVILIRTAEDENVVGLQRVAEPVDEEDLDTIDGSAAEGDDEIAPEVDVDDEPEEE

On to “GyrI peptide 33-48 (from UniProt P33012)”, for which the Kd in data set [1] is 26 µM.

For the substance YacG (from UniProt P0A8H8), the Kd in data set [2] was 0.35 µM.
